Measurements as given in PMC3182218, “Obesity Risk Gene TMEM18 Encodes a Sequence-Specific DNA-Binding Protein” (PLoS ONE, 2011).

Target: the molecule itself
Experiment: dimer-sized band on SDS-PAGE Western blot; TMEM18 purified from insect cells, bound to DNA-cellulose, washed and eluted with 0.5 M, 1 M and 2 M salt; anti-Flag Western blot; dimer form approx. 34 kDa against monomer form approx. 17 kDa

B1: TMEM18 produced in insect cells (N-terminal Flag-tag followed by eight histidines) (natural protein)
chain: not shown
notes: TMEM18, 140 amino acids; cloned into pK509.3 vector; Flag-tag first, then eight histidine repeats, then TMEM18; detected by anti-Flag Western blot; also called histidine and Flag-tagged TMEM18; source: Sf9 or Tn5 insect cells (baculovirus), purified (nuclear extract in dodecyl maltoside, Ni-sepharose); not shown: Flag, N-terminal, kept
binding result: binds
